Residue numbers refer to the chain shown, from its start. Names and notes keep the numbering of the source.
What was measured:
[1] = molecular target: T1, Recombinant Human DLL4 (R&D Systems Cat#1506-D4/CF) (human, UniProt Q9NR61 27-524); experiment: ECL (MSD) binding assay, immobilised DLL4, 10 nM Fab;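 note: fab binding read as electrochemiluminescence via a TAG-labelled detection antibody, 1 h incubations at 20 °C, antigen signal compared with each well's blank, ratio of at least 4 scored as binder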
T1 construct: Bought recombinant human DLL4; also called delta-like protein 4; rHuman DLL4

[2] = molecular target: T1, Recombinant Human DLL4 (R&D Systems …); experiment: ELISA on coated DLL4, 100 nM Fab
[3] = molecular target: T2, Recombinant Human DLL4 (delta-like protein 4) (human, UniProt Q9NR61 27-524); experiment: ELISA on coated DLL4, Fab at 25 nM (2-fold serial dilution)
T2 construct: also called rHuman DLL4; Delta-like 4

[4] = molecular target: T2, Recombinant Human DLL4 (delta-like …); experiment: ELISA on coated DLL4, Fab at 3.125 nM (2-fold serial dilution)
[5] = molecular target: T2, Recombinant Human DLL4 (delta-like …); experiment: ELISA on coated DLL4, Fab at 6.25 nM (2-fold serial dilution)
[6] = molecular target: T2, Recombinant Human DLL4 (delta-like …); experiment: ELISA on coated DLL4, Fab at 50 nM (2-fold serial dilution)
[7] = molecular target: T2, Recombinant Human DLL4 (delta-like …); experiment: ELISA on coated DLL4, Fab at 100 nM (2-fold serial dilution)
[8] = molecular target: T2, Recombinant Human DLL4 (delta-like …); experiment: ELISA on coated DLL4, Fab at 12.5 nM (2-fold serial dilution)
[9] = molecular target: T3, rHuman HGF R/c-MET/Fc Chimera, CF (R&D Systems Cat#358-MT/CF) (human, UniProt P08581 25-932); experiment: ECL multispot (MSD) binding assay, antigen spotted on plate;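 note: purified Fab incubated 1 h at 20 °C on antigen spots, detected with TAG-labelled antibody, electrochemiluminescence compared with each well's blank, signal-to-blank ratio ≥4 counted as hit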
T3 construct: Bought recombinant protein; also called HGF R/Fc; hepatocyte growth factor receptor
T3 sequence (P08581 25-932, change not shown): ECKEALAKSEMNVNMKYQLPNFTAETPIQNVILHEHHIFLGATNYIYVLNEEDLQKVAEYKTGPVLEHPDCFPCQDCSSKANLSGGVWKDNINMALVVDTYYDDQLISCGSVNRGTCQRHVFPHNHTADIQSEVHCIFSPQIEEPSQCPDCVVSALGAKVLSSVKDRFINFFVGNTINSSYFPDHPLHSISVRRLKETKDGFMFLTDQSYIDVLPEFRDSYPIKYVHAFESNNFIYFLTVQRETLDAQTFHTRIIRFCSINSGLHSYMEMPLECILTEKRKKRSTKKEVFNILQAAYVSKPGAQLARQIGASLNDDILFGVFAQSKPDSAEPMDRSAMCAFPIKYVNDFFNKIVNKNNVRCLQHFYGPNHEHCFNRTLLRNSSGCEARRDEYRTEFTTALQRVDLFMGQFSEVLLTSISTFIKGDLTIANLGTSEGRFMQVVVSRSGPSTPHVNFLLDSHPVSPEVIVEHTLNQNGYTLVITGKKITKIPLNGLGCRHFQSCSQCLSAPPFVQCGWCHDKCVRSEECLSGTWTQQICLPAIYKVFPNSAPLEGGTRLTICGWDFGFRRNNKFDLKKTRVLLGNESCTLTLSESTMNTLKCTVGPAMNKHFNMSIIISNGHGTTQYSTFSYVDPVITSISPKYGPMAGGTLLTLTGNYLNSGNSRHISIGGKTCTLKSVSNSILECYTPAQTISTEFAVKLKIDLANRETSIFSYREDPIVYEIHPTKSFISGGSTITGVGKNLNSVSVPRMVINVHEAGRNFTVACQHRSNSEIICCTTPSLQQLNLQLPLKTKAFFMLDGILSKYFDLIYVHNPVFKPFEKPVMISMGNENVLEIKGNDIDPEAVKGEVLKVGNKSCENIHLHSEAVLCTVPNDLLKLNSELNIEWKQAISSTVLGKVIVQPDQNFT

[10] = molecular target: T4, rHuman P-Cadherin/Fc Chimera, CF (R&D Systems Cat#861-PC) (human, UniProt P22223 108-654); experiment: as above
T4 construct: Bought recombinant protein

[11] = molecular target: T5, rHuman IGF-1 sR, (IGF-1 sR), CF (R&D Systems Cat#391-GR) (human, UniProt P08069 31-932); experiment: as above
T5 construct: Bought recombinant soluble receptor; also called insulin-like growth factor-1 soluble receptor

[12] = molecular target: T6, rHuman Erythropoietin R/Fc Chimera, CF (R&D Systems Cat#963-ER) (human, UniProt P19235 25-250); experiment: as above
T6 construct: Bought recombinant protein; also called EPO R; EPO R/Fc
T6 sequence (looked up): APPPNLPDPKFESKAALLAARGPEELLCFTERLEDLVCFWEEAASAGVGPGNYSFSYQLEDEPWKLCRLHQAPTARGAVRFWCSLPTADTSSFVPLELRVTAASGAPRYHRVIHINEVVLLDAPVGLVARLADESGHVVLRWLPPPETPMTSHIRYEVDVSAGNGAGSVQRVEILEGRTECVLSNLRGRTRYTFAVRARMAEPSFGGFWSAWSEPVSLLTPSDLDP

[13] = molecular target: T7, rHuman CD44/Fc Chimera, CF (R&D Systems Cat#3660-CD) (human, UniProt P16070 21-220); experiment: as above
T7 construct: Bought recombinant protein

[14] = molecular target: T8, rHuman Notch-1/Fc Chimera, CF (R&D Systems Cat#3647-TK) (human, UniProt P46531 19-526); experiment: as above
T8 construct: Bought recombinant protein

[15] = molecular target: T9, Recombinant Human DLL4 (R&D Systems Cat#1506-D4/CF) (human, UniProt Q9NR61 27-524); experiment: as above
T9 construct: Bought recombinant protein; also called delta-like protein 4; rHuman DLL4

[16] = molecular target: T10, rHuman ErbB2/Fc Chimera, CF (R&D Systems Cat#1129-ER) (human, UniProt P04626 23-652); experiment: as above
T10 construct: Bought recombinant protein; also called human epidermal growth factor 2 receptor

[17] = molecular target: T11, rHuman EGF R/Fc Chimera, CF (R&D Systems Cat#344-ER) (human, UniProt P00533 25-645); experiment: as above
T11 construct: Bought recombinant protein; also called epidermal growth factor receptor

[18] = molecular target: T12, Recombinant Human DLL4 (delta-like protein 4) (human, UniProt Q9NR61 27-524); experiment: ECL (MSD) binding assay, DLL4 immobilised, Fab at 10 nM
T12 construct: also called rHuman DLL4; Delta-like 4

B1: Fab VH5-51_IGHD5-18*01>3_IGHJ4*01 G100K/G104T (H:KT) & V3-4_IGLJ1*01 S96M (Fab, V domains shown)
VH: EVQLVQSGAEVKKPGESLKISCKGSGYSFTSYWIGWVRQMPGKGLEWMGIIYPGDSDTRYSPSFQGQVTISADKSISTAYLQWSSLKASDTAMYYCARRKYSYTYDYFDYWGQGTLVTVSS
VL: QTVVTQEPSFSVSPGGTVTLTCGLSSGSVSTSYYPSWYQQTPGQAPRTLIYSTNTRSSGVPDRFSGSILGNKAALTITGAQADDESDYYCVLYMGMGISYVFGTGTKVTVL
notes: Fab format: CH1 with His6 and Flag tags, and lambda CL, from the vectors; also called G100K/G104T & S96M
ECL Signal [10 nM Fab] [1]: 61700
ELISA Signal [100 nM Fab] [2]: 0.02

B2: Fab VH5-51_IGHD5-18*01>3_IGHJ4*01 G100K/G104T (KT) & V3-4_IGLJ1*01 S52G (Fab, V domains shown)
VH: B1 VH
VL: B1 VL with S52G, M96S
notes: Fab; also called H:KT & L:S52G
ELISA signal [3]: 0.227
ELISA signal [4]: 0.216
ELISA signal [5]: 0.207
ELISA signal [6]: 0.194
ELISA signal [7]: 0.209
ELISA signal [8]: 0.215

B3: Fab VH5-51_IGHD5-18*01>3_IGHJ4*01 G100K/G104T G24L & V3-4_IGLJ1*01 (Fab, V domains shown)
VH: B1 VH with G24L
VL: B1 VL with M96S
notes: Fab; also called H:KT G24L & L:parent
ELISA signal [3]: 0.221
ELISA signal [4]: 0.257
ELISA signal [5]: 0.278
ELISA signal [6]: 0.245
ELISA signal [7]: 0.298
ELISA signal [8]: 0.233

B4: Fab VH5-51_IGHD5-18*01>3_IGHJ4*01 G100K/G104T (H:KT) & V3-4_IGLJ1*01 S96E (Fab, V domains shown)
VH: B1 VH
VL: B1 VL with M96E
notes: Fab format: CH1 with His6 and Flag tags, and lambda CL, from the vectors; also called G100K/G104T & S96E
ECL Signal [10 nM Fab] [1]: 57000
ELISA Signal [100 nM Fab] [2]: 0.02

B5: Fab VH5-51_IGHD5-18*01>3_IGHJ4*01 G100K/G104T (H:KT) & V3-4_IGLJ1*01 S96A (Fab, V domains shown)
VH: B1 VH
VL: B1 VL with M96A
notes: Fab format: CH1 with His6 and Flag tags, and lambda CL, from the vectors; also called G100K/G104T & S96A
ECL Signal [10 nM Fab] [1]: 1130
ELISA Signal [100 nM Fab] [2]: 0

B6: Fab VH5-51_IGHD5-18*01>3_IGHJ4*01 G100K/G104T (KT) & V3-4_IGLJ1*01 R56Y (Fab, V domains shown)
VH: B1 VH
VL: B1 VL with R56Y, M96S
notes: Fab; also called H:KT & L:R56Y
ELISA signal [3]: 0.205
ELISA signal [4]: 0.18
ELISA signal [5]: 0.182
ELISA signal [6]: 0.211
ELISA signal [7]: 0.231
ELISA signal [8]: 0.184

B7: Fab VH5-51_IGHD5-18*01>3_IGHJ4*01 G100K/G104T (H:KT) & V3-4_IGLJ1*01 S96V (Fab, V domains shown)
VH: B1 VH
VL: B1 VL with M96V
notes: Fab format: CH1 with His6 and Flag tags, and lambda CL, from the vectors; also called G100K/G104T & S96V
ECL Signal [10 nM Fab] [1]: 42300
ELISA Signal [100 nM Fab] [2]: 0.01

B8: Fab VH5-51_IGHD5-18*01>3_IGHJ4*01 G100K/G104T (H:KT) & V3-4_IGLJ1*01 (Fab, V domains shown)
VH: B1 VH
VL: B1 VL with M96S
notes: Fab format: CH1 with His6 and Flag tags, and lambda CL, from the vectors; also called KT double mutant; H:KT & L:wt
ECL Signal [10 nM Fab] [1]: 36600
ELISA Signal [100 nM Fab] [2]: 0.01

B9: Fab VH5-51_IGHD5-18*01>3_IGHJ4*01 G100K/G104T (H:KT) & V3-4_IGLJ1*01 S96P (Fab, V domains shown)
VH: B1 VH
VL: B1 VL with M96P
notes: Tested as a Fab made in E. coli; The heavy chain vector (plasmid A) adds CH1 with His6 and Flag tags; the lambda light chain vector (plasmid E) adds CL; also called G100K/G104T & S96P
ECL Signal [10 nM Fab] [1]: 54000
ELISA Signal [100 nM Fab] [2]: 0.03

B10: Fab VH5-51_IGHD5-18*01>3_IGHJ4*01 G100K/G104T (H:KT) & V3-4_IGLJ1*01 S96L (Fab, V domains shown)
VH: B1 VH
VL: B1 VL with M96L
notes: Fab format: CH1 with His6 and Flag tags, and lambda CL, from the vectors; also called G100K/G104T & S96L
ECL Signal [10 nM Fab] [1]: 40000
ELISA Signal [100 nM Fab] [2]: 0.02

B11: Fab VH5-51_IGHD5-18*01>3_IGHJ4*01 G100K/G104T (H:KT) & V3-4_IGLJ1*01 S96R (Fab, V domains shown)
VH: B1 VH
VL: B1 VL with M96R
notes: Fab format: CH1 with His6 and Flag tags, and lambda CL, from the vectors; also called G100K/G104T & S96R
ECL Signal [10 nM Fab] [1]: 54300
ELISA Signal [100 nM Fab] [2]: 0.02

B12: Fab VH5-51_IGHD5-18*01>3_IGHJ4*01 G100K/G104T G35V & V3-4_IGLJ1*01 (Fab, V domains shown)
VH: B1 VH with G35V
VL: B1 VL with M96S
notes: Fab; also called H:KT G35V & L:parent
ELISA signal [3]: 0.232
ELISA signal [4]: 0.251
ELISA signal [5]: 0.245
ELISA signal [6]: 0.232
ELISA signal [7]: 0.271
ELISA signal [8]: 0.244

B13: Fab VH1-46_IGHD6-6*01_IGHJ1*01 S102A/S103P/S104F/H111F (APFF) & L6_IGKJ1*01 S31V (Fab, V domains shown)
VH: QVQLVQSGAEVKKPGASVKVSCKASGYTFTSYYMHWVRQAPGQGLEWMGIINPSGGSTSYAQKFQGRVTMTRDTSTSTVYMELSSLRSEDTAVYYCAREEYAPFSAEYFQFWGQGTLVTVSS
VL: EIVLTQSPATLSLSPGERATLSCRASQSVSVYLAWYQQKPGQAPRLLIYDASNRATGIPARFSGSGSGTDFTLTISSLEPEDFAVYYCQQRSNWPPWTFGQGTKVEIKR
notes: Tested as Fab (CH1 with His6/Flag tags, kappa CL) made in E. coli; also called APFF / S31V
ECL signal [9]: 288
ECL signal [10]: 360
ECL signal [11]: 335
ECL signal [12]: 509
ECL signal [13]: 384
ECL signal [14]: 374
ECL signal [15]: 176000
ECL signal [16]: 300
ECL signal [17]: 363

B14: Fab VH1-46_IGHD6-6*01_IGHJ1*01 S102A/S103P/S104F/H111F & L6_IGKJ1*01 (Fab, V domains shown)
VH: B13 VH
VL: not shown
notes: also called H:APFF & L:wt; APFF
Signal [10 nM Fab] [18]: 13500

B15: Fab VH1-46_IGHD6-6*01_IGHJ1*01 S102A/S103P/S104F/H111F & L6_IGKJ1*01 D50A (Fab, V domains shown)
VH: B13 VH
VL: B13 VL with V31S, D50A
notes: also called APFF & L6_IGKJ1*01 D50A
Signal [10 nM Fab] [18]: 4230

B16: Fab VH1-46_IGHD6-6*01_IGHJ1*01 S102A/S103P/S104F/H111F & L6_IGKJ1*01 T56A (Fab, V domains shown)
VH: B13 VH
VL: B13 VL with V31S, T56A
notes: also called APFF & L6_IGKJ1*01 T56A
Signal [10 nM Fab] [18]: 7260

B17: Fab VH1-46_IGHD6-6*01_IGHJ1*01 S102A/S103P/S104F/H111F & L6_IGKJ1*01 R54A (Fab, V domains shown)
VH: B13 VH
VL: B13 VL with V31S, R54A
notes: also called APFF & L6_IGKJ1*01 R54A
Signal [10 nM Fab] [18]: 11600

B18: Fab VH1-46_IGHD6-6*01_IGHJ1*01 S102A/S103P/S104F/H111F & L6_IGKJ1*01 A55T (Fab, V domains shown)
VH: B13 VH
VL: B13 VL with V31S, A55T
notes: also called APFF & L6_IGKJ1*01 A55T
Signal [10 nM Fab] [18]: 13200

B19: Fab VH1-46_IGHD6-6*01_IGHJ1*01 S102A/S103P/S104F/H111F & L6_IGKJ1*01 A51T (Fab, V domains shown)
VH: B13 VH
VL: B13 VL with V31S, A51T
notes: also called APFF & L6_IGKJ1*01 A51T
Signal [10 nM Fab] [18]: 2850

B20: Fab VH1-46_IGHD6-6*01_IGHJ1*01 S102A/S103P/S104F/H111F & L6_IGKJ1*01 N53A (Fab, V domains shown)
VH: B13 VH
VL: B13 VL with V31S, N53A
notes: also called APFF & L6_IGKJ1*01 N53A
Signal [10 nM Fab] [18]: 14200

B21: Fab VH1-46_IGHD6-6*01_IGHJ1*01 S102A/S103P/S104F/H111F & L6_IGKJ1*01 S52A (Fab, V domains shown)
VH: B13 VH
VL: B13 VL with V31S, S52A
notes: also called APFF & L6_IGKJ1*01 S52A
Signal [10 nM Fab] [18]: 19300

— patent publication US20120316071A1 (published 2012)
